B1: Strep II-ECD (natural protein)
chain: MEETMKLATMEDTVEYCLFLIPDESRDSDKHKEILQKYIERIITRFAPMLVPYIWQNQPFNLKYKPGKGGVPAHMFGVTKFGDNIEDEWFIVYVIKQITKEFPELVARIEDNDGEFLLIEAADFLPKWLDPENSTNRVFFCHGELCIIPAPRKSGAESWLPTTPPTIPQALNIITAHSEKILASESIRAAVNRRIRGYPEKIQASLHRAHCFLPAGIVAVLKQRPRLVAAAVQAFYLRDPIDLRACRVFKTFLPETRIMTSVTFTKCLYAQLVQQRFVPDRRSGYRLPPPSDPQYRAHELGMKLAHGFEILCSKCSPHFSDCKKSLVTASPLWASFLESLKKNDYFKGLIEGSAQYRERLEMAENYFQLSVDWPESSLAMSPGEEILTLLQTIPFDIEDLKKEAANLPPEDDDQWLDLSPDQLDQLLQEAVGKKESESVSKEEKEQNYDLTEVSESMKAFISKVSTHKGAELPREPSEAPITFDADSFLNYFDKILGPRPNESDSDDLDDEDFECLDSDDDLDFETHEPGEEASLKGTLDNLKSYMAQMDQELAHTCISKSFTTRNQVEPVSQTTDNNSDEEDSGTGESVMAPVDVDLNLVSNILESYSSQAGLAGPASNLLQSMGVQLPDNTDHRPTSKPTKN
B2: AAR2-His (natural protein)
chain: MAAVQMDPELAKRLFFEGATVVILNMPKGTEFGIDYNSWEVGPKFRGVKMIPPGIHFLHYSSVDKANPKEVGPRMGFFLSLHQRGLTVLRWSTLREEVDLSPAPESEVEAMRANLQELDQFLGPYPYATLKKWISLTNFISEATVEKLQPENRQICAFSDVLPVLSMKHTKDRVGQNLPRCGIECKSYQEGLARLPEMKPRAGTEIRFSELPTQMFPEGATPAEITKHSMDLSYALETVLNKQFPSSPQDVLGELQFAFVCFLLGNVYEAFEHWKRLLNLLCRSEAAMMKHHTLYINLISILYHQLGEIPADFFVDIVSQDNFLTSTLQVFFSSACSIAVDATLRKKAEKFQAHLTKKFRWDFAAEPEDCAPVVVELPEGIEMG
B3: 6xHis-AAR2-Strep II (natural protein)
chain: MAAVQMDPELAKRLFFEGATVVILNMPKGTEFGIDYNSWEVGPKFRGVKMIPPGIHFLHYSSVDKANPKEVGPRMGFFLSLHQRGLTVLRWSTLREEVDLSPAPESEVEAMRANLQELDQFLGPYPYATLKKWISLTNFISEATVEKLQPENRQICAFSDVLPVLSMKHTKDRVGQNLPRCGIECKSYQEGLARLPEMKPRAGTEIRFSELPTQMFPEGATPAEITKHSMDLSYALETVLNKQFPSSPQDVLGELQFAFVCFLLGNVYEAFEHWKRLLNLLCRSEAAMMKHHTLYINLISILYHQLGEIPADFFVDIVSQDNFLTSTLQVFFSSACSIAVDATLRKKAEKFQAHLTKKFRWDFAAEPEDCAPVVVELPEGIEMG

Experiments:
PRPF8-Flag = PRPF8-Flag (human, UniProt Q6P2Q9 1-2335); assay: pull-down
RUVBL1–RUVBL2 complex = RUVBL1–RUVBL2 complex (human, UniProt Q9Y265;Q9Y230); assay: pull-down
Strep II-ECD = biological target: B1; assay: pull-down
RUVBL2 [1] = biological target: T1, RUVBL2 (human, UniProt Q9Y230 1-463); assay: pull-down
RUVBL1 [2] = biological target: T2, RUVBL1 (human, UniProt Q9Y265 1-456); assay: pull-down
[3] = biological target: His-RUVBL1–RUVBL2 complex (human, UniProt Q9Y265;Q9Y230); assay: pull-down
AAR2-His = biological target: B2; assay: pull-down
6xHis-AAR2-Strep II = biological target: B3; assay: pull-down
RUVBL2 [4] = biological target: T1, RUVBL2; assay: cross-linking
RUVBL1 [5] = biological target: T2, RUVBL1; assay: cross-linking

Measured: binding result

B1
binds: PRPF8-Flag | RUVBL1–RUVBL2 complex

B2
binds: Strep II-ECD

B3
binds: RUVBL1–RUVBL2 complex

B4: GST-ZNHIT2-C (domain or fragment)
chain: GPVSPLVRFQLPNVLFAYAHTLALYHGGDDALLSDFCATLLGVSGALGAQQVFASAEEALQAAAHVLEAGEHPPGPLGTRGAMHEVARILLGEGPTNQKGYTLAALGDLAQTLGRARKQAVAREERDHLYRARKKCQFLLAWTNENEAALTPLALDCARAHQAHAVVAEEV
binds: RUVBL2 [1] | RUVBL1–RUVBL2 complex | RUVBL1 [2]

B5: GST-ZNHIT2ΔC (domain or fragment)
chain: MEPAGPCGFCPAGEVQPARYTCPRCNAPYCSLRCYRTHGTCAENFYRDQVLGELRGCSAPPSRLASALRRLRQQRETEDEPGEAGLSSGPAPGGLSGLWERLAPGEKAAFERLLSRGEAGRLLPPWRPWWWNRGAGPQLLEELDNAPGSDAAELELAPARTPPDSVKDASAAEPAAAERVLGDVPGACTPVVPTRIPAIVSLSRGPVSPLVRFQLPNVLFAYAHTLALYHGGDDALLSDFCATLLGVSGALGAQQVFASAEEALQAAAHVLEAGEHPPGPLGTRGAMHEVARILLGEGPTNQKGYTLAALGDLAQTLGRARKQAVAREERDHLYRARKKCQFLLAWTNENEAALTPLALDCARAHQAHAVVAEEV
binds: RUVBL2 [1] | Strep II-ECD | RUVBL1–RUVBL2 complex | [3] | RUVBL1 [2]

B6: ZNHIT2ΔC (domain or fragment)
chain: MEPAGPCGFCPAGEVQPARYTCPRCNAPYCSLRCYRTHGTCAENFYRDQVLGELRGCSAPPSRLASALRRLRQQRETEDEPGEAGLSSGPAPGGLSGLWERLAPGEKAAFERLLSRGEAGRLLPPWRPWWWNRGAGPQLLEELDNAPGSDAAELELAPARTPPDSVKDASAAEPAAAERVLGDVPGACTPVVPTRIPAIVSLSRGPVSPLVRFQLPNVLFAYAHTLALYHGGDDALLSDFCATLLGVSGALGAQQVFASAEEALQAAAHVLEAGEHPPGPLGTRGAMHEVARILLGEGPTNQKGYTLAALGDLAQTLGRARKQAVAREERDHLYRARKKCQFLLAWTNENEAALTPLALDCARAHQAHAVVAEEV
binds: Strep II-ECD | AAR2-His | 6xHis-AAR2-Strep II | PRPF8-Flag | RUVBL2 [4] | RUVBL1 [5]
